Data published in the nanobody polyreactivity screen of Harvey et al. (2022).

Test: yeast display, Sf9 membrane polyspecificity reagent, FACS + sequencing; frameworks hold sequencing errors
In short: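 In a synthetic yeast display library (Saccharomyces cerevisiae BJ5465), nanobody expression was induced with galactose for 36–48 hours. FACS gates were set low and high (top ~1%) using anti-HA fluorescence for expression and streptavidin fluorescence for binding of the Sf9 membrane reagent. Each polyreactivity label is drawn from the gate of origin.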

| Sequence | polyreactivity (PSR sort gate) |
| --- | --- |
| QVQLVESGGGLVQAGGSLRLSCDASGRIFLTNAMAWYRQAPGKERELVAAITSGVSTYYADSVKGRFTISRDNAKNTVYLQMNSLKPEDTAVYYCNADTDRYWPYEYDYWGQGTQVTVSS | low polyreactivity |
| QVQLVESGGGLVQAGGSLRLSCDASGRIFYGYAMGWYRQAPGKERELVAAITYIGGTYYADSVKGRFTISRDNAKNTVYLQMNSMKPEDTAVYYCNALYRYLYRSGDFWGQGSQVTVSS | low polyreactivity |
| QVQLVESGGGLVQAGGSLRLSCDASGRIFYNYAMGWYRQAPGTERELVAAISGSGGSTYYADSVKGRFTISRDNAKNTVYLQMNSLKPEDTAVYDCSTFGPQYYSRNFDYWGQGTLVTVSS | low polyreactivity |
| QVQLVESGGGLVQAGGSLRLSCDASGRIFYSYDIGWYRQAHGKARELVATISSAGSTYYADSVKGRFTISRDNAKNTVYLQMNSLKPEDTAVYYSARRSGWWTRMDSWGQGTQVTVSS | high polyreactivity |
| QVQLVESGGGLVQAGGSLRLSCDASGRIFYYYGMGWYRQAPGKERELVAAISNGGRTYYADSVKGRFTISRDNAKNTVYLQMNSLKPEDTAVYYCAALTRGRGGYDYWGQGTQVTVSS | high polyreactivity |
| QVQLVESGGGLVQAGGSLRLSCDASGRILKYNAMGWYRQAPGKERELVAAISGSGGRTYYADSVKGRFTISRDNAKNTVYLQMNSLKPEDTAVYYCAASNASPGGFNYWGQGTQVTVSS | high polyreactivity |
| QVQLVESGGGLVQAGGSLRLSCDASGRIYEVYAMGWYRRAPGKERELVAAISADGTITSYADSVKGRFTISRDNAKNNVYLQMNSLKPEDTAVYYCNADPRFRGDYWGQGTQVTVSS | high polyreactivity |
| QVQLVESGGGLVQAGGSLRLSCDASGRPFRRNAMGWYRQAPGKERELVAAITLSGGRTYADSLKGRFTISRDNAKNTVYLQMNSLKPEDTAVYYCAASSPGFSYWYNGYEYWGEGTQVTVSS | high polyreactivity |
| QVQLVESGGGLVQAGGSLRLSCDASGRTLDVNARGWYRQAPGKERELVAAISYSGGITYYADSVKGRFTISRDNAKNTVYLQMNRLKPEDTAVYYCAVVGGYPSYTVDYWGKGTQVTVSS | low polyreactivity |
| QVQLVESGGGLVQAGGSLRLSCDASGSIFATYAMGWYRQAPGKERELVAAIRRSTGTTYYADSVKGRFTISRDNAKNTVYLQMNSLKPEDTAVYYCAALFRPRVHRYDYWGQGTLVTVSS | low polyreactivity |
| QVQLVESGGGLVQAGGSLRLSCDASGSIFEYYAMGWYRPAPGKERELVAAISSGGPTYYADSVKGRFTISRDNAKNTVYLQMNSLKPEDTAVYYCNADLWYPDYDYWGQGTQVTVSS | low polyreactivity |
| QVQLVESGGGLVQAGGSLRLSCDASGSIFGVNAMGWYRQAPGKERELVAAINNGGSTKYADSVKGRFTISRDNAKNTVYLQMNSLKPEDTAVYYCAARSWTHYFRFDYWGQGTQVTVSS | high polyreactivity |
| QVQLVESGGGLVQAGGSLRLSCDASGSIFPYYAMGWYRQAPGKERELVAAITSSDGITYYADSVKGRFTISRDNAKNTVYLQMNSLKPEDTAVYYCAAEVYVADWLTEFYYWGQGTQVTVSS | high polyreactivity |
| QVQLVESGGGLVQAGGSLRLSCDASGSIFSHYAMGWYRQAPGKERELVATITWRGGSNTNYADSVKGRFTISRDNAKNTVYLQMNSLKPEDTAVYYCAADGDGYYYWGQGTQVTVSS | low polyreactivity |
| QVQLVESGGGLVQAGGSLRLSCDASGSIFYFNAMGWYRQAPGKERELVASITSGGSTNYADSVKGRFTISRDNAKNTVYLQMNSLKPEDTAVYYCNARKVTYPLYQDEMEYWGQGTQVTVSS | low polyreactivity |
| QVQLVESGGGLVQAGGSLRLSCDASGSILSFYVMGWYIQAPGKERELVAAINLSSGRTYYADSVKGRFTISRDNAKNTVYLQMNSLKPEDTAVYYCAKQVFGYGIVNNGDYWGQGTQVTVSS | high polyreactivity |
| QVQLVESGGGLVQAGGSLRLSCDASGSISVVNMGWYRQAPGKERELVASNTSSGSTTYADSVKGRFTISRDKAKNTVYLQMNRLKPEDTAVYYCAADVGTDYTYQHPAGAAYDYCGQGTQVTVSS | low polyreactivity |
| QVQLVESGGGLVQAGGSLRLSCDASGSSFDYYARGWYRQAPGTERELVAAITSTGRTYYADSVKGRFTISRDNAKNTVYLQMNSLKPDDTAVYYCAADQPWGPLFDYWGQGTQVTVSS | low polyreactivity |
| QVQLVESGGGLVQAGGSLRLSCDASGSTFAAYAMGWYRQAPGKERELVAAISRSGGTTYYADSVKGRFTISRDNAKNTVYLQMNSLKPEDTAVYYCAAELSLGNYWYDYWGQGTQVTVSS | high polyreactivity |
| QVQLVESGGGLVQAGGSLRLSCDASGSTFVTYAMGWYRPAPGKERELVAAINTGGRTKYADSVKGRFTISRDNATNTVYLQMNSLKPEDTAVYYCAARLSTTGVAYGYWGQGTQVTVSS | high polyreactivity |
| QVQLVESGGGLVQAGGSLRLSCDASGSTFYPNAMGWYRQAPWKERELVAAITTSGGSTYYADSVKGRFTISRDNAKNTVYLQMNSLKPEDTAVYYCAAEVRDRGLEPYGPIYDYWGQGTQVTVSS | high polyreactivity |
| QVQLVESGGGLVQAGGSLRLSCDPSGRIFNRYAMGWYRQAPGKERELVAAITSGGDTNYADSVKGRFTISRDNAKNTVYLQMNSLKQEDTAVYYCNARSRGRASGYDYWGQGTQVTVSS | high polyreactivity |

| Sequence | polyreactivity (PSR sort gate) |
| --- | --- |
| QVQLVESGGGLVQAGGSLRLSCEASGFTFGPYAMGWYRQAPGKEREWVAAIDDSGGNTYYADSVKGRFTISRDNAKNTVYLQRNSLKPEDTAVSYGNAFGPDYYHVYPAEDYWGQGTQVTVSS | low polyreactivity |
| QVQLVESGGGLVQAGGSLRLSCEASGRIFDDNDMGWYRQAPGKERELVAAISSGDSTKYADSVKGRFTITRDNAKNTVYLQMNSLKPEDTAVYYCAAERNHGLVGSESVGRNDYWGQGTQVTVSS | low polyreactivity |
| QVQLVESGGGLVQAGGSLRLSCGASGFIFEGYSMGRYRQAPAKERELVAANTRGDSTNYADSVKGRFTISRDNAKNTVYLLMNSLKTEDTAVYYCAKTNLIGTDFTSPVQYYYWGQGTQVTVSS | low polyreactivity |
| QVQLVESGGGLVQAGGSLRLSCGASGIIFLVNAMGWYRQAPGRERELVATITSGGSTYADSVKGRFTISRDNAKNTVYLQMNSLKPEDTAVYYCAAVRRRRNSYGYWGQGTQVTVSS | high polyreactivity |
| QVQLVESGGGLVQAGGSLRLSCGASGRTIDYNGMGWYRQEPGKERELVSVISSSGGSTFYADSVKGRFTISRDNAKNTVYLQMNSLEPEDTAVYYCAALHVGHNYYNSGFYYWGQGTQVTVSS | low polyreactivity |
| QVQLVESGGGLVQAGGSLRLSCGASGSIFPHYAMGWYRQAPGKEREFVSTISGSTGRTYYADSVKGRFTISRDNAKNTVYLQMNSLKPEDTAVYYCATSVGYYLPPIKYDYWGQGTQVTVSS | low polyreactivity |
| QVQLVESGGGLVQAGGSLRLSCGASGSIFYGYAMGWYRQAPGKERELVAAITLSGRRTYYADSVKGRFTISRDNAKNTVDSQMNTLKPEDTEVYYCAKHYPYPTEMNYWGQGTQVTVTS | high polyreactivity |
| QVQLVESGGGLVQAGGSLRLSCGASGSISKINAMGWYRQARGKERELVAAINTGDSTYYADSVKGRFTISRDNAKNTVYLQRNSLKPEDTAVYYCAAEGSPTGYDYWGLGTQVTVSS | low polyreactivity |
| QVQLVESGGGLVQAGGSLRLSCGASGSTSVRYAMGWYRQAPGKERELVAAISSSGGSTYYAVSVKGRFTISRDTAKNTVYLQMNSLKPEDTAVYYCNAVPYTTFDWGQGTQVTVSS | low polyreactivity |
| QVQLVESGGGLVQAGGSLRLSCGAYGRIFLFYDMGWYRQEPGKVRELVATISFRGGSTYYADSVKGRFTISRDNAKNTVYLQMNRLKPEDTAVYYCAKQNKRGYSTSAYYSWGQGTQVTVSS | low polyreactivity |
| QVQLVESGGGLVQAGGSLRLSCGAYGSIFVSHAMAWSRQAPGKASELVAAISQSGGSTYYADSVKGRFTISRDNAKNTVFLQMSSLKPEDTAVYYCATPSRSGFRIYDYWGQGTQVTVSS | low polyreactivity |
| QVQLVESGGGLVQAGGSLRLSCHASGFIFGYKAMGWYRQAPGKERELVAAISSGGSTYYADSVKGRFTISRDNAKYTVYLQMKSLKPEDTAVFYCATVFVVLPPTRFDSWGQGTQVTVSS | low polyreactivity |
| QVQLVESGGGLVQAGGSLRLSCPASGFIYPVYAMGWSRQAPGKERELVAAISRRGGSTYYADSVKGRFTISRDNAKNTVYLQMNSLKPDDTAVYYCAKDGRGDPVKDDYWGLGTQVTVSS | high polyreactivity |
| QVQLVESGGGLVQAGGSLRLSCPASGFTFVRYAMGWYRQAPGKERELVAAISSSGSSTYYADSVKGRFTISRDNAKYTVYLQMNSLKPEDSAVYYCNARAGRGEDYWGQGTQVTVSS | low polyreactivity |
| QVQLVESGGGLVQAGGSLRLSCPASGGTFYVYAMGGYRQEPGKERELVAAISTSDGITYYADSVKGRFTISRDNAKNNVYLQMNSLKPEDTAVYYCAAVYAGVGSPVKRDYWGLGTQVTVSS | high polyreactivity |
| QVQLVESGGGLVQAGGSLRLSCPASGRIYDYNGMRWYRQAPRKERELVAAITSSGSRTYYADSVKGRFTISRDNAKNTVYFQMNSLKPEDTAVYYCARGGGRRKGLVDYWGQGTQVSVSS | low polyreactivity |
| QVQLVESGGGLVQAGGSLRLSCPASGRTFHYYTLGWYRQSPGKERELVARISLGVGSTYYADSVKGRFTISRDIAKNTVDLQMNSLKPEDTAVYYCNAVWYKSVVKGVYGRVDWGQGTQVTVSS | low polyreactivity |
| QVQLVESGGGLVQAGGSLRLSCPASGRTFKYYAMGCYRQSPGKESELVAAITSTGGSTYYADSVKGRFTISRDNAMNTVYLQMNSLKPEDTAVYYCNRYTQYRDRSDNHWGQGTQVTVSS | high polyreactivity |
| QVQLVESGGGLVQAGGSLRLSCPASGRTFYKYAMGWYRQAPGKEREFVADISSRGGSTYYADSVKGRFTISRDNAKNTVYLQMNSLKPEDTAVYYCAKRDRAAARAYYYWGQGTQVTVSS | high polyreactivity |
| QVQLVESGGGLVQAGGSLRLSCPASGRTYASYAMGWYRQAPGKDRELVAAITSSGGSTYYADSVKGRFTISRDNAKNTVYLQMNSLKPEYTAVYYCAARSRYRGDSWGQGTQVTVSS | high polyreactivity |
| QVQLVESGGGLVQAGGSLRLSCPASGSIFQYYAMGWYRQAPGKERELVAAISSGGRTNYADSVKGRFTISRDNAKNTVYLQMNSLKPEATAVYYCAAARYYYQVYRWEYDYWGQGTQVTVSS | high polyreactivity |
